Measurements reported in paper PMC10584130, “Effects of HSP70 chaperones Ssa1 and Ssa2 on Ste5 scaffold and the mating mitogen-activated protein kinase (MAPK) pathway in Saccharomyces cerevisiae” (PLOS ONE, 2023).

Biological target: T1, Ste5-Myc9 (S. cerevisiae, UniProt P32917 1-917)
T1 construct: Ste5 MAPK scaffold protein of S. cerevisiae; source: S. cerevisiae (EY1775 ste5 bar1; EY3136/EY3141), expressed from plasmids (pSKM19 2μ; pSKM90), in whole cell extract; not shown: Myc9, C-terminal, kept
T1 sequence (looked up): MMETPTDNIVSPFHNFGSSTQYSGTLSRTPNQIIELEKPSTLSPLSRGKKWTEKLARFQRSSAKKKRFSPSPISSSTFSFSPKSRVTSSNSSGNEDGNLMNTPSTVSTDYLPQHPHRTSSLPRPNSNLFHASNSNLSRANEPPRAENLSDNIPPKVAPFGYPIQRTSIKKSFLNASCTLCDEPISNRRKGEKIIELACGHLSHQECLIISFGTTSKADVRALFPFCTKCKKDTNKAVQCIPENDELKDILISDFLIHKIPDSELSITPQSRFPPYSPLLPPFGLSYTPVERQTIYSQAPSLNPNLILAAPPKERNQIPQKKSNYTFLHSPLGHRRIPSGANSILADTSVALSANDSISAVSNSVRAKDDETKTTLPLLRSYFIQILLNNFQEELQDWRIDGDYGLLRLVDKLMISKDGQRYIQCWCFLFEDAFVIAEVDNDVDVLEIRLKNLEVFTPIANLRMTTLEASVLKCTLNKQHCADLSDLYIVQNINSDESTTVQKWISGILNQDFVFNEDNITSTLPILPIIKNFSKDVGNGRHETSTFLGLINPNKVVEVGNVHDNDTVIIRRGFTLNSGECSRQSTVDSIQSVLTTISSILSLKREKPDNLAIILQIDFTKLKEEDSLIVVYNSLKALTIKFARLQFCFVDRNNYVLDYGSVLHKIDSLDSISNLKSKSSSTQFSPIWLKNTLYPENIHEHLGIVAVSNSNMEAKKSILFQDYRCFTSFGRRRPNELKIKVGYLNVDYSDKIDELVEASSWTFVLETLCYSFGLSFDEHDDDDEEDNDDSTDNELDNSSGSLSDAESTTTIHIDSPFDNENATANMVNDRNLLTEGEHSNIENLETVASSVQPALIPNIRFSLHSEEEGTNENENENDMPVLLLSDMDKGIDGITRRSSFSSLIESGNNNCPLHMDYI
Experiment: affinity purification with mass spectrometry; Ste5-Myc9 IP'd with 9E10 from 10 mg yeast whole cell extract (EY1775, cells without or with 50 nM α factor for 2 hours); 20 mM Tris-HCl pH 7.2, 125 mM potassium acetate, 0.1% Tween 20; Coomassie-stained SDS gel, 70 kDa band digested with trypsin, LC-MS/MS; ImageJ densitometry of the gel
Conditions: partners not purified

ratio Ste5-Myc9:70 kDa Hsp70 (Coomassie densitometry), with α factor: 0.67
ratio Ste5-Myc9:70 kDa Hsp70 (Coomassie densitometry), without α factor: 1.45
B1: Hsp70 Ssa1 (endogenous) (natural protein)
chain: not shown
notes: Hsp70 chaperone Ssa1 of S. cerevisiae; also called 70 kDa protein; band a; source: endogenous, S. cerevisiae EY1775 whole cell extract
